T1: human GnRH receptor (human, UniProt P30968 1-328)
T1 construct: whole, on cells; Endogenous receptor on human cancer cell lines; also called GnRHR1; gonadotropin releasing hormone receptor
T1 sequence (looked up): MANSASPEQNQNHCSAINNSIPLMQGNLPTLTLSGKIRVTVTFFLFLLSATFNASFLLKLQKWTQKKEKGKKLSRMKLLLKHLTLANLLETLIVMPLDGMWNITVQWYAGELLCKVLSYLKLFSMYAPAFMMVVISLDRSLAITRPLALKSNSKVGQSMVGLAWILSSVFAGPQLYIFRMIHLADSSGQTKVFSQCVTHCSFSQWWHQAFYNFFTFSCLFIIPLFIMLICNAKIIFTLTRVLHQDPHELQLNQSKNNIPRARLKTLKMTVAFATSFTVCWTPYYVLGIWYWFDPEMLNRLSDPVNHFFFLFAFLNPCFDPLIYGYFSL

B1: GHR-106 monoclonal antibody (antibody, V domains shown)
VH: QVQLKESGPGLVAPSQSLSITCTVSGFSLSRYSVHWVRQPPGKGLEWLGMIWGGGSTDYNSALKSRLSISKDNSKSQVFLKMNSLQTDDTAMYYCARGNDGYYSFAYWGQGTLVTVSS
VL: DIVMSQSPSSLAVSAGEKVTMSCKSSQSLLNSRTRKNYLAWYQQKPGQSPKLLIYWASTRESGVPDRFTGSGSGTDFTLTISSVQAEDLAVYYCKQSYNLYTFGGGTKLEIK
notes: Murine hybridoma monoclonal antibody raised against the KLH-coupled 1-29 peptide of human GnRH receptor; detected with goat anti-mouse IgG; also called ATCC PTA-10252
B2: GHR-103 monoclonal antibody (antibody, V domains shown)
VH: B1 VH
VL: B1 VL
notes: Murine monoclonal
B3: synthetic peptide corresponding to the N-terminal 1-29 amino acid residues of human GnRH receptor (peptide)
peptide: MANSASPEQNQNHCSAINNSIPLMQGNLP
notes: Custom synthesized; also called 1-29 synthetic peptide; 1-29 peptide

Experiment [1] has as its target B3. Nature of the experiment: ELISA on coated peptide. For orientation: In an ELISA, binding on a coated surface is turned into a signal by an enzyme label.
In another experiment the target is T1, human GnRH receptor. Nature of the experiment: ELISA, microwells coated with 1-29 synthetic peptide or OC-3-VGH cancer cells, AP-labeled goat anti-mouse IgG.
Experiment [2] deals with B3. The experiment is described as follows: ELISA on coated peptide (FIG. 2A).
Experiment [3] has as its target B1. The experiment is described as follows: competition cell ELISA, free peptide against GHR-106 on OC-3-VGH cells (FIG. 3B).

Regarding B1, in experiment [1], the binding result is “binds”. The Kd with human GnRH receptor was determined as 2 nM.

Consider B2, for which the binding result in experiment [2] was “binds”.

As to B3, the binding result in experiment [3] is listed as “binds”.

As a reminder, the Kd is the concentration at which binding is half-saturated. Low readings indicate a tighter complex, high ones a looser complex.

For the origin of these results see patent publication US20120266264A1 (VANCOUVER BIOTECH, published 2012).
